The source of these data is patent US20240002497A1 (Merck Sharp & Dohme, published 2024).

To fix the notation:
B1: F010302316 (VHH)
VHH: EVQLVESGGGVVQPGGSLRLSCAASGPVFNINRMAWYRQAPGKQRELVAYVTPTGDISYADSVKGRFTISRDASKRVYLQMNSLRPEDTALYYCRALLQPRSYSITRTYWGQGTLVTVSS
notes: also called F0103387G04(L11V, A12V, K33R, R39Q, S50Y, S56D, T60A, G73A, W78V, S79Y, T83R, V89L, N93R, D99R, N100cI)-FLAG3-HIS6
B2: F010302318 (VHH)
VHH: B1 VHH with A73G, R101D, S102R
notes: also called F0103387G04(L11V, A12V, K33R, R39Q, S50Y, S56D, T60A, W78V, S79Y, T83R, V89L, N93R, S100R, N100cI)
B3: F010302321 (VHH)
VHH: B1 VHH with A73R, R101D, S102R
notes: also called F0103387G04(L11V, A12V, K33R, R39Q, S50Y, S56D, T60A, G73R, W78V, S79Y, T83R, V89L, N93R, S100R, N100cI)-FLAG3-HIS6
B4: F010302324 (VHH)
VHH: B1 VHH with A73R, S102R
notes: also called F0103387G04(L11V, A12V, K33R, R39Q, S50Y, S56D, T60A, G73R, W78V, S79Y, T83R, V89L, N93R, D99R, S100R, N100cI)
B5: F010302319 (VHH)
VHH: B1 VHH with R101D, S102R
notes: also called F0103387G04(L11V, A12V, K33R, R39Q, S50Y, S56D, T60A, G73A, W78V, S79Y, T83R, V89L, N93R, S100R, N100cI)-FLAG3-HIS6
B6: F010302334 (VHH)
VHH: EVQLVESGGGVVQPGGSLRLSCAASSRQFIRDVFTGWYRRAPGKQRELVARIYNEGNTQYADSAKGRFTISRDNAKKTVYLQMNSLRPEDTALYYCLFSGTISTGREYRSGDYWGQGTLVTVSS
B7: F010302336 (VHH)
VHH: B6 VHH with S26H
B8: F010302340 (VHH)
VHH: B6 VHH with S26H, Q28A, V33L, N54E, E55S, Q59N
B9: F010302345 (VHH)
VHH: B6 VHH with S26H, R40Q, N54E, E55G
B10: F010302335 (VHH)
VHH: B6 VHH with N54E, E55S
B11: F010302338 (VHH)
VHH: B6 VHH with S26H, Q28A, N54E, E55S
B12: F010302342 (VHH)
VHH: B6 VHH with R40Q
B13: F010302343 (VHH)
VHH: B6 VHH with R40Q, N54E, E55S
B14: F010302344 (VHH)
VHH: B6 VHH with S26H, R40Q

A word on the EC50: it is the midpoint of the concentration-response curve.

Changes are numbered by the printed parent chain. Names may count otherwise.

For one test, the target named is T1, huNav1.7α + β1-β2-β3 (human Nav1.7α co-expressed with human Navβ1, Navβ2 and Navβ3 on cells) (human).
T1 construct: also called huNav1.7-beta1-beta2-beta3; CHO FlpIn huNav1.7α + β1-β2-β3
The test can be described thus: binding FACS, CHO FlpIn cells. The method, boiled down:
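Flow cytometry read-out of anti-Flag signal on propidium iodide-negative cells measured ISVD binding. Purified FLAG3-tagged ISVD, diluted in PBS with 10% FBS and NaN₃, was applied to the cells for 30 minutes at 4° C.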
As for B1, the Bmax is 91% and the concentration for a half-maximal effect (EC50) came to 8.2 nM.
As for B2, the Bmax worked out at 89% and the half-maximal effective concentration (EC50) is 11 nM.
On the same counts, the results for B3 are 91% and 7.9 nM.
For B4 the same measures were 42% and 29 nM.
On to B5, for which the Bmax was 88% and the concentration giving a half-maximal response (EC50) stood at 15 nM.

The target in another test is T2, rhNav1.7α + β1-β2-β3 (rhesus monkey).
T2 construct: also called rhNav1.7-beta1-beta2-beta3; rhNav1.7-β1-β2-β3
The test can be described thus: binding FACS, CHO FlpIn. How it is done:
(§1) Binding of the ISVDs to cell-expressed Nav1.7α was detected via murine anti-Flag (Sigma, catalog #F1804). Briefly, cells were resuspended in FACS buffer (PBS, 10% FBS, NaN₃) and transferred to a 96-well V-bottom plate at 1×10^5 cells/well. Purified FLAG3-tagged ISVD was diluted in FACS buffer and added to the cells for 30 minutes at 4° C. […] Prior to the read-out, the samples were resuspended in 1 μg/mL propidium iodide (Sigma, catalog #P4170) to exclude dead cells. Between each step, the cells were centrifuged for 5 minutes at 200 grams and washed with 100 μL/well FACS buffer.
As for B6, the Bmax stood at 70% and the half-maximal effective concentration (EC50) came to 11 nM.
For B7 the same measures were 79% and 9.7 nM.
On the same counts, the results for B8 are 96% and 13 nM.
For B9 the same measures were 96% and 12 nM.
For the molecule B10, the Bmax came to 84% and the 50% effective concentration (EC50) is 13 nM.
Consider B11, for which the Bmax is 100% and the EC50 stood at 7.9 nM.
On the same counts, the results for B12 are 61% and 16 nM.
Take B13: the Bmax amounted to 84% and the EC50 amounted to 18 nM.
For B14 the same measures were 78% and 13 nM.

The next test deals with T3, huNav1.7α + β1-β2-β3 (human, UniProt Q15858 1-1988; A5A6L6 19-218; O60939 30-215; Q2KI11 23-215).
T3 construct: also called huNav1.7-beta1-beta2-beta3; huNav1.7-β1-β2-β3
Briefly: binding FACS, CHO FlpIn. How it is done: as §1
Regarding B6, the Bmax was 100% and the half-maximal effective concentration (EC50) was determined as 4 nM.
On the same counts, the results for B7 are 100% and 3.6 nM.
For B8 the same measures were 100% and 4.6 nM.
On the same counts, the results for B9 are 100% and 4.9 nM.
Regarding B10, the Bmax came to 100% and the EC50 stood at 4.1 nM.
On the same counts, the results for B11 are 100% and 3.4 nM.
For B12, the Bmax came to 100% and the EC50 was 4 nM.
On to B13, for which the Bmax turned out to be 100% and the EC50 was 6.4 nM.
For B14 the same measures were 100% and 4.3 nM.
